According to US20150079657, “TARGETED HISTONE ACETYLATION” (SIGMA-ALDRICH CO. LLC, published 2015):

B1: PEDF -92 target site (dsDNA)
DNA 1: GGATGGTGGTGCAGCAGTG
DNA 2: CACTGCTGCACCACCATCC
B2: OCT4 +181 target site (dsDNA)
DNA 1: GGAGGGCCAGGAATCGGGC
DNA 2: GCCCGATTCCTGGCCCTCC

How the values were obtained:
[1] = molecular target: ZF6961 (ZF(PEDF))-p300 (Artificial Sequence); test: cell_activity; PEDF mRNA activation in HEK293, 72 h; conditions: tags: fusion to human p300 HAT domain aa 1284-1673
Description: Expression vectors encoding ZF(PEDF)-p300 or ZF(PEDF)-p65 were transfected into HEK 293 cells. Control cells were transfected with vectors encoding GFP, p65 (no ZF), or p300 (no ZF). Total RNA was isolated 72 hours later, and the levels of PEDF mRNA and cyclophilin A endogenous control mRNA were measured by RT-PCR. The PEDF/cyc ratio was used for normalizing PEDF expression.

[2] = molecular target: ZF(Oct4+181)-p300 (Artificial Sequence); test: cell_activity; OCT4 mRNA activation in HEK293, 48 h; H3K18 and H3K27 acetylation also increased by ChIP (FIG. 1); conditions: tags: C-terminal fusion to human p300 HAT domain aa 1284-1673 (NM_001429)
Chain of ZF(Oct4+181)-p300 (Artificial Sequence) (chain, as listed by the source): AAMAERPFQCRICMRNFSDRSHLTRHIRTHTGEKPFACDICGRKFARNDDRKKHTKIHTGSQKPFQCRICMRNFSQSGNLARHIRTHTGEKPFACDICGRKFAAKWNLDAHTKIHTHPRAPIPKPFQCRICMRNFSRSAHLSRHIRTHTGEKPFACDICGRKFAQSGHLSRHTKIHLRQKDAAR
Description: Expression vectors encoding ZF(Oct4+181)-p300 or one of the control fusion proteins described above were transfected into HEK 293 cells. Control cells were transfected with vectors encoding GFP, p65 (no ZF), or p300 (no ZF). After 48 hrs, the cells were harvested and total RNA was isolated. The levels of OCT4 mRNA and cyclophilin A (i.e., PPIA) endogenous control mRNA were measured by real time reverse transcriptase polymerase chain reaction (RT-PCR) (Life Technologies, Carlsbad, Calif.). The OCT4/cyc ratio was used for normalizing OCT4 expression.

Chain of ZF6961 (ZF(PEDF))-p300 (Artificial Sequence) (chain, as listed by the source): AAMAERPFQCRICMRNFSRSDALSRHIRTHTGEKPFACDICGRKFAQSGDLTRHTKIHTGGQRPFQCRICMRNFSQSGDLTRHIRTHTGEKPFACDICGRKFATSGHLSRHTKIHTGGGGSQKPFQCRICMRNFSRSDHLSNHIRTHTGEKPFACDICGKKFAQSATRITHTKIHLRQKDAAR

Binder	activity [1] [fold]	activity [2] [fold]
B1	> 2.5	–
B2	–	> 25
